Measurements from the supplement of paper PMC9112550, “Optimization of the antimicrobial peptide Bac7 by deep mutational scanning” (BMC Biology, 2022).

test system: Escherichia coli TOP10; experiment: shrunken log2 fold change of peptide-encoding DNA abundance (4.5 h post-induction vs induction); higher = less antimicrobial activity (less host growth inhibition); conditions: time post-induction: 4.5 h; library: site-saturation at positions 5, 18, 19, 20
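Further: peptides expressed intracellularly from a pBAD plasmid library in pooled LB shake-flask culture, induced with 0.3% L-arabinose, DNA abundance read by NGS, three biological replicates, DESeq2 with apeglm shrinkage.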

Row | Sequence | shrunken log2 fold change
1 | RRIRNRPPRLPRPRPRPEAQPRP | -0.0169
2 | RRIRGRPPRLPRPRPRPNCIPRP | 0.247
3 | RRIRHRPPRLPRPRPRPTWVPRP | 0.078
4 | RRIRQRPPRLPRPRPRPFLQPRP | -0.194
5 | RRIRYRPPRLPRPRPRPSRRPRP | 0.0397
6 | RRIRCRPPRLPRPRPRPTRAPRP | 0.632
7 | RRIRRRPPRLPRPRPRPHDWPRP | 0.312
8 | RRIRNRPPRLPRPRPRPMLPPRP | 0.00241
9 | RRIRHRPPRLPRPRPRPAPVPRP | 0.466
10 | RRIRSRPPRLPRPRPRPEQLPRP | -0.0808
11 | RRIRSRPPRLPRPRPRPIGTPRP | -0.25
12 | RRIRSRPPRLPRPRPRPGHKPRP | -0.112
13 | RRIRARPPRLPRPRPRPWVFPRP | 0.276
14 | RRIRTRPPRLPRPRPRPCSPPRP | -0.0356
15 | RRIRRRPPRLPRPRPRPASFPRP | 0.309
16 | RRIRPRPPRLPRPRPRPPLYPRP | 0.217
17 | RRIRDRPPRLPRPRPRPERTPRP | 0.12
18 | RRIRTRPPRLPRPRPRPFIIPRP | -0.919
19 | RRIRCRPPRLPRPRPRPWQYPRP | 0.0686
20 | RRIRYRPPRLPRPRPRPCFHPRP | -1.42
21 | RRIRHRPPRLPRPRPRPAGEPRP | -0.0717
22 | RRIRGRPPRLPRPRPRPGVVPRP | 1.43
23 | RRIRSRPPRLPRPRPRPPLPPRP | 0.688
24 | RRIRWRPPRLPRPRPRPCCPPRP | -0.206
25 | RRIRVRPPRLPRPRPRPSVFPRP | -0.126

Row | Sequence | shrunken log2 fold change
26 | RRIRDRPPRLPRPRPRPPFWPRP | 0.185
27 | RRIRVRPPRLPRPRPRPSHKPRP | -0.24
28 | RRIRQRPPRLPRPRPRPNSFPRP | 0.151
29 | RRIRGRPPRLPRPRPRPSQQPRP | -0.147
30 | RRIRWRPPRLPRPRPRPDNDPRP | -0.0628
31 | RRIRIRPPRLPRPRPRPIFWPRP | 0.397
32 | RRIRKRPPRLPRPRPRPFGFPRP | -0.137
33 | RRIRHRPPRLPRPRPRPPYGPRP | 0.0267
34 | RRIRCRPPRLPRPRPRPFGKPRP | -0.0592
35 | RRIRGRPPRLPRPRPRPWFAPRP | 0.0421
36 | RRIRERPPRLPRPRPRPPDNPRP | 0.197
37 | RRIRSRPPRLPRPRPRPKYEPRP | -0.147
38 | RRIRERPPRLPRPRPRPIHNPRP | -0.659
39 | RRIRERPPRLPRPRPRPHPNPRP | -0.0522
40 | RRIRTRPPRLPRPRPRPPWLPRP | 0.547
41 | RRIRHRPPRLPRPRPRPEASPRP | 0.0128
42 | RRIRRRPPRLPRPRPRPQTEPRP | -0.0572
43 | RRIRCRPPRLPRPRPRPWWNPRP | -0.752
44 | RRIRNRPPRLPRPRPRPFVQPRP | -0.225
45 | RRIRARPPRLPRPRPRPPHPPRP | 0.527
46 | RRIRKRPPRLPRPRPRPWILPRP | -0.14
47 | RRIRGRPPRLPRPRPRPAEYPRP | -0.187
48 | RRIRKRPPRLPRPRPRPGGCPRP | 0.809
49 | RRIRRRPPRLPRPRPRPGVRPRP | 0.318
50 | RRIRLRPPRLPRPRPRPVSMPRP | -0.302

Row | Sequence | shrunken log2 fold change
51 | RRIRNRPPRLPRPRPRPTQNPRP | 0.332
52 | RRIRARPPRLPRPRPRPYFNPRP | -0.71
53 | RRIRPRPPRLPRPRPRPVSRPRP | 0.0925
54 | RRIRVRPPRLPRPRPRPQENPRP | -0.119
55 | RRIRYRPPRLPRPRPRPNDMPRP | -1.16
56 | RRIRPRPPRLPRPRPRPDMPPRP | -0.302
57 | RRIRIRPPRLPRPRPRPLIFPRP | -0.562
58 | RRIRRRPPRLPRPRPRPNDFPRP | -0.189
59 | RRIRPRPPRLPRPRPRPIKPPRP | -0.0651
60 | RRIRARPPRLPRPRPRPIKAPRP | 0.105
61 | RRIRTRPPRLPRPRPRPQMWPRP | -0.0505
62 | RRIRRRPPRLPRPRPRPFVCPRP | 0.191
63 | RRIRKRPPRLPRPRPRPCRCPRP | 0.0976
64 | RRIRHRPPRLPRPRPRPHVMPRP | -0.185
65 | RRIRVRPPRLPRPRPRPIMVPRP | -0.219
66 | RRIRGRPPRLPRPRPRPVENPRP | 0.757
67 | RRIRGRPPRLPRPRPRPCQKPRP | 0.0649
68 | RRIRFRPPRLPRPRPRPRHIPRP | -0.439
69 | RRIRMRPPRLPRPRPRPWDKPRP | -0.0134
70 | RRIRMRPPRLPRPRPRPRDSPRP | 0.117
71 | RRIRVRPPRLPRPRPRPWIQPRP | 0.0857
72 | RRIRHRPPRLPRPRPRPQNIPRP | -0.269
73 | RRIRVRPPRLPRPRPRPSHSPRP | -0.171
74 | RRIRERPPRLPRPRPRPPWWPRP | 0.537
75 | RRIRKRPPRLPRPRPRPAKHPRP | 0.0854

Row | Sequence | shrunken log2 fold change
76 | RRIRNRPPRLPRPRPRPSCKPRP | 0.065
77 | RRIRSRPPRLPRPRPRPDKTPRP | 0.178
78 | RRIRHRPPRLPRPRPRPHCVPRP | -0.01
79 | RRIRVRPPRLPRPRPRPLCDPRP | -0.108
80 | RRIRFRPPRLPRPRPRPDNAPRP | -0.167
81 | RRIRGRPPRLPRPRPRPQAYPRP | -0.0978
82 | RRIRCRPPRLPRPRPRPDVMPRP | -0.101
83 | RRIRARPPRLPRPRPRPLWSPRP | 0.263
84 | RRIRHRPPRLPRPRPRPDRNPRP | -0.0482
85 | RRIRVRPPRLPRPRPRPMNSPRP | -0.675
86 | RRIRNRPPRLPRPRPRPLMTPRP | 0.0149
87 | RRIRMRPPRLPRPRPRPLWLPRP | 0.563
88 | RRIRIRPPRLPRPRPRPNVSPRP | -0.052
89 | RRIRVRPPRLPRPRPRPGLQPRP | 0.478
90 | RRIRERPPRLPRPRPRPETSPRP | 0.122
91 | RRIRIRPPRLPRPRPRPKVDPRP | -0.468
92 | RRIRQRPPRLPRPRPRPWKAPRP | -0.112
93 | RRIRRRPPRLPRPRPRPNWKPRP | -0.0144
94 | RRIRFRPPRLPRPRPRPYFMPRP | -1.02
95 | RRIRKRPPRLPRPRPRPYMPPRP | -0.315
96 | RRIRQRPPRLPRPRPRPGNEPRP | 0.177
97 | RRIRPRPPRLPRPRPRPIPIPRP | -0.065
98 | RRIRLRPPRLPRPRPRPGYSPRP | -0.314
99 | RRIRNRPPRLPRPRPRPVDLPRP | -0.21
100 | RRIRPRPPRLPRPRPRPFMDPRP | -0.248

Row | Sequence | shrunken log2 fold change
101 | RRIRGRPPRLPRPRPRPVEEPRP | 0.843
102 | RRIRVRPPRLPRPRPRPTYWPRP | 0.0478
103 | RRIRLRPPRLPRPRPRPKWEPRP | -0.00197
104 | RRIRARPPRLPRPRPRPLDIPRP | 0.0659
105 | RRIRHRPPRLPRPRPRPAWAPRP | 0.48
106 | RRIRTRPPRLPRPRPRPDQRPRP | -0.0808
107 | RRIRTRPPRLPRPRPRPNMDPRP | -0.508
108 | RRIRLRPPRLPRPRPRPIWIPRP | -0.134
109 | RRIRKRPPRLPRPRPRPHRWPRP | 0.00588
110 | RRIRARPPRLPRPRPRPKREPRP | 0.422
111 | RRIRTRPPRLPRPRPRPQYDPRP | -0.0819
112 | RRIRIRPPRLPRPRPRPYFNPRP | -1.29
113 | RRIRTRPPRLPRPRPRPTSMPRP | 0.308
114 | RRIRKRPPRLPRPRPRPAEPPRP | 0.429
115 | RRIRPRPPRLPRPRPRPTFAPRP | 0.409
116 | RRIRRRPPRLPRPRPRPDSAPRP | 0.288
117 | RRIRPRPPRLPRPRPRPTFWPRP | 0.333
118 | RRIRVRPPRLPRPRPRPPHHPRP | 0.0413
119 | RRIRGRPPRLPRPRPRPYVKPRP | -0.417
120 | RRIRTRPPRLPRPRPRPPKCPRP | -0.339
121 | RRIRLRPPRLPRPRPRPQVYPRP | -0.11
122 | RRIRERPPRLPRPRPRPGIYPRP | -0.91
123 | RRIRRRPPRLPRPRPRPAYCPRP | 0.0506
124 | RRIRSRPPRLPRPRPRPQVVPRP | -0.144
125 | RRIRQRPPRLPRPRPRPFIHPRP | -0.876

Row | Sequence | shrunken log2 fold change
126 | RRIRLRPPRLPRPRPRPSMHPRP | -0.489
127 | RRIRGRPPRLPRPRPRPVRVPRP | 0.856
128 | RRIRFRPPRLPRPRPRPICGPRP | 0.0198
129 | RRIRARPPRLPRPRPRPAISPRP | 0.594
130 | RRIRKRPPRLPRPRPRPYVEPRP | -1.51
131 | RRIRPRPPRLPRPRPRPDMEPRP | -0.0437
132 | RRIRERPPRLPRPRPRPNPSPRP | -0.162
133 | RRIRTRPPRLPRPRPRPPSEPRP | 0.42
134 | RRIRNRPPRLPRPRPRPMADPRP | 0.0252
135 | RRIRERPPRLPRPRPRPDLPPRP | -0.156
136 | RRIRLRPPRLPRPRPRPRNWPRP | 0.751
137 | RRIRYRPPRLPRPRPRPLKRPRP | -0.234
138 | RRIRSRPPRLPRPRPRPFGFPRP | -0.137
139 | RRIRIRPPRLPRPRPRPLFVPRP | -0.642
140 | RRIRCRPPRLPRPRPRPYRCPRP | -0.282
141 | RRIRWRPPRLPRPRPRPQPPPRP | 0.603
142 | RRIRHRPPRLPRPRPRPQADPRP | -0.139
143 | RRIRIRPPRLPRPRPRPFTHPRP | -0.182
144 | RRIRGRPPRLPRPRPRPKFRPRP | 0.112
145 | RRIRKRPPRLPRPRPRPCEAPRP | 0.277
146 | RRIRRRPPRLPRPRPRPKSSPRP | -0.00897
147 | RRIRGRPPRLPRPRPRPVNAPRP | 0.719
148 | RRIRVRPPRLPRPRPRPHAIPRP | -0.0728
149 | RRIRSRPPRLPRPRPRPMRTPRP | 0.654
150 | RRIRTRPPRLPRPRPRPYYNPRP | -0.719
